This assay deals with SARS-CoV-2 original 2019-CoV Spike, prefusion trimeric ectodomain (2P, GSAS, T4 foldon) (SARS-CoV-2, UniProt P0DTC2 14-1213). Nature of the assay: BLI. Conditions: both partners purified.

B1: cat ACE2-Fc (residues 19-615, mouse IgG2a Fc fusion) (Fc fusion)
chain: STTEELAKTFLEKFNHEAEELSYQSSLASWNYNTNITDENVQKMNEAGAKWSAFYEEQSKLAKTYPLAEIHNTTVKRQLQALQQSGSSVLSADKSQRLNTILNAMSTIYSTGKACNPNNPQECLLLEPGLDDIMENSKDYNERLWAWEGWRAEVGKQLRPLYEEYVALKNEMARANNYEDYGDYWRGDYEEEWTDGYNYSRSQLIKDVEHTFTQIKPLYQHLHAYVRAKLMDTYPSRISPTGCLPAHLLGDMWGRFWTNLYPLTVPFGQKPNIDVTDAMVNQSWDARRIFKEAEKFFVSVGLPNMTQGFWENSMLTEPGDSRKVVCHPTAWDLGKGDFRIKMCTKVTMDDFLTAHHEMGHIQYDMAYAVQPFLLRNGANEGFHEAVGEIMSLSAATPNHLKTIGLLSPGFSEDSETEINFLLKQALTIVGTLPFTYMLEKWRWMVFKGEIPKEQWMQKWWEMKREIVGVVEPVPHDETYCDPASLFHVANDYSFIRYYTRTIYQFQFQEALCRIAKHEGPLHKCDISNSSEAGKKLLQMLTLGKSKPWTLALEHVVGEKKMNVTPLLKYFEPLFTWLKEQNRNSFVGWNTDWRPYAD
B1: the binding result is recorded as “binds”.

The record behind these values is publication PMC10109501 (PLOS Pathogens, 2023).
